What is called Ki is a dissociation constant, usually derived from enzyme kinetics or from competition with a known ligand. Read a high Ki as a looser hold on the target.

The values that follow come from patent publication US20200024322A1 (Eli Lilly, published 2020).

T1: human GIP receptor (human, UniProt P48546 22-466)
T1 construct: whole, on cells; Used as crude membranes of stably transfected CHO cells; also called hGIPR
T1 sequence (looked up): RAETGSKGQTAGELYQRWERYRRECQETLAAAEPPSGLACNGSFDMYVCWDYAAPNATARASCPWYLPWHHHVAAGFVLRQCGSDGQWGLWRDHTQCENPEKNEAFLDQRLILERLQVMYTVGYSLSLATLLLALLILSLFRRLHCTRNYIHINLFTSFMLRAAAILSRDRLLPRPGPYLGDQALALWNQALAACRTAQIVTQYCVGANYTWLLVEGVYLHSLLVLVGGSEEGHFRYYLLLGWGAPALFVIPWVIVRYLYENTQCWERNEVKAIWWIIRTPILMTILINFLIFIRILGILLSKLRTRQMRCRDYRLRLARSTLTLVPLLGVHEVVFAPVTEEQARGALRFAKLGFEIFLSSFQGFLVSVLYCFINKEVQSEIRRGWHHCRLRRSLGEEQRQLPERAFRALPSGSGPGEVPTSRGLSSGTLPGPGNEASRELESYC

B1: Example 121 (peptide)
peptide: Y[Aib]EGT[αMeF]TSDYSI[αMeL]LDEK([AEEA-AEEA-γGlu-C20 diacid])AQQAFIEYLIEGGPSSGAPPPS-NH2
modifications: N-terminus assumed
SMILES: CC[C@H](C)[C@H](NC(=O)[C@H](CC(C)C)NC(=O)[C@H](Cc1ccc(O)cc1)NC(=O)[C@H](CCC(=O)O)NC(=O)[C@@H](NC(=O)[C@H](Cc1ccccc1)NC(=O)[C@H](C)NC(=O)[C@H](CCC(N)=O)NC(=O)[C@H](CCC(N)=O)NC(=O)[C@H](C)NC(=O)[C@H](CCCCNC(=O)COCCOCCNC(=O)COCCOCCNC(=O)CC[C@H](NC(=O)CCCCCCCCCCCCCCCCCCC(=O)O)C(=O)O)NC(=O)[C@H](CCC(=O)O)NC(=O)[C@H](CC(=O)O)NC(=O)[C@H](CC(C)C)NC(=O)[C@](C)(CC(C)C)NC(=O)[C@@H](NC(=O)[C@H](CO)NC(=O)[C@H](Cc1ccc(O)cc1)NC(=O)[C@H](CC(=O)O)NC(=O)[C@H](CO)NC(=O)[C@@H](NC(=O)[C@](C)(Cc1ccccc1)NC(=O)[C@@H](NC(=O)CNC(=O)[C@H](CCC(=O)O)NC(=O)C(C)(C)NC(=O)[C@@H](N)Cc1ccc(O)cc1)[C@@H](C)O)[C@@H](C)O)[C@@H](C)CC)[C@@H](C)CC)C(=O)N[C@@H](CCC(=O)O)C(=O)NCC(=O)NCC(=O)N1CCC[C@H]1C(=O)N[C@@H](CO)C(=O)N[C@@H](CO)C(=O)NCC(=O)N[C@@H](C)C(=O)N1CCC[C@H]1C(=O)N1CCC[C@H]1C(=O)N1CCC[C@H]1C(=O)N[C@@H](CO)C(N)=O
B2: Example 133 (peptide)
peptide: [Desaminotyrosyl][Aib]EGT[αMeF]TSDYSI[Aib]LDEK([AEEA-AEEA-γGlu-C20 diacid])AQ[Aib]AFIEYLIEGGPSSGAPPPS-NH2
SMILES: CC[C@H](C)[C@H](NC(=O)[C@H](CC(C)C)NC(=O)[C@H](Cc1ccc(O)cc1)NC(=O)[C@H](CCC(=O)O)NC(=O)[C@@H](NC(=O)[C@H](Cc1ccccc1)NC(=O)[C@H](C)NC(=O)C(C)(C)NC(=O)[C@H](CCC(N)=O)NC(=O)[C@H](C)NC(=O)[C@H](CCCCNC(=O)COCCOCCNC(=O)COCCOCCNC(=O)CC[C@H](NC(=O)CCCCCCCCCCCCCCCCCCC(=O)O)C(=O)O)NC(=O)[C@H](CCC(=O)O)NC(=O)[C@H](CC(=O)O)NC(=O)[C@H](CC(C)C)NC(=O)C(C)(C)NC(=O)[C@@H](NC(=O)[C@H](CO)NC(=O)[C@H](Cc1ccc(O)cc1)NC(=O)[C@H](CC(=O)O)NC(=O)[C@H](CO)NC(=O)[C@@H](NC(=O)[C@](C)(Cc1ccccc1)NC(=O)[C@@H](NC(=O)CNC(=O)[C@H](CCC(=O)O)NC(=O)C(C)(C)NC(=O)CCc1ccc(O)cc1)[C@@H](C)O)[C@@H](C)O)[C@@H](C)CC)[C@@H](C)CC)C(=O)N[C@@H](CCC(=O)O)C(=O)NCC(=O)NCC(=O)N1CCC[C@H]1C(=O)N[C@@H](CO)C(=O)N[C@@H](CO)C(=O)NCC(=O)N[C@@H](C)C(=O)N1CCC[C@H]1C(=O)N1CCC[C@H]1C(=O)N1CCC[C@H]1C(=O)N[C@@H](CO)C(N)=O
B3: Example 122 (peptide)
peptide: Y[Aib]EGT[αMeF]TSDYSI[αMeL]LDEK([AEEA-AEEA-γGlu-C20 diacid])AQQAFIEYLIE[Aib]GPSSGAPPPS-NH2
modifications: N-terminus assumed
SMILES: CC[C@H](C)[C@H](NC(=O)[C@H](Cc1ccccc1)NC(=O)[C@H](C)NC(=O)[C@H](CCC(N)=O)NC(=O)[C@H](CCC(N)=O)NC(=O)[C@H](C)NC(=O)[C@H](CCCCNC(=O)COCCOCCNC(=O)COCCOCCNC(=O)CC[C@H](NC(=O)CCCCCCCCCCCCCCCCCCC(=O)O)C(=O)O)NC(=O)[C@H](CCC(=O)O)NC(=O)[C@H](CC(=O)O)NC(=O)[C@H](CC(C)C)NC(=O)[C@](C)(CC(C)C)NC(=O)[C@@H](NC(=O)[C@H](CO)NC(=O)[C@H](Cc1ccc(O)cc1)NC(=O)[C@H](CC(=O)O)NC(=O)[C@H](CO)NC(=O)[C@@H](NC(=O)[C@](C)(Cc1ccccc1)NC(=O)[C@@H](NC(=O)CNC(=O)[C@H](CCC(=O)O)NC(=O)C(C)(C)NC(=O)[C@@H](N)Cc1ccc(O)cc1)[C@@H](C)O)[C@@H](C)O)[C@@H](C)CC)C(=O)N[C@@H](CCC(=O)O)C(=O)N[C@@H](Cc1ccc(O)cc1)C(=O)N[C@@H](CC(C)C)C(=O)N[C@H](C(=O)N[C@@H](CCC(=O)O)C(=O)NC(C)(C)C(=O)NCC(=O)N1CCC[C@H]1C(=O)N[C@@H](CO)C(=O)N[C@@H](CO)C(=O)NCC(=O)N[C@@H](C)C(=O)N1CCC[C@H]1C(=O)N1CCC[C@H]1C(=O)N1CCC[C@H]1C(=O)N[C@@H](CO)C(N)=O)[C@@H](C)CC
B4: Example 123 (peptide)
peptide: YXEGTXTSDYSIXLDKKAQXEFIEYLIEGGPSSG
modifications: Aib2; αMeF6; αMeL13; K17((2-[2-(2-Amino-ethoxy)-ethoxy]-acetyl)2-(γ-Glu)-CO-(CH2)18-CO2H); Aib20; C-terminal NH2
B5: Example 124 (peptide)
peptide: B4 peptide with K16E
modifications: Aib2; αMeF6; αMeL13; K17((2-[2-(2-Amino-ethoxy)-ethoxy]-acetyl)2-(γ-Glu)-CO-(CH2)18-CO2H); Aib20; C-terminal NH2
B6: Example 137 (peptide)
peptide: YXEGTXTSDYSIXLDKKAQXXFIEYLIEGGPSSGAPPPS
modifications: Aib2; αMeF6; αMeL13; K17((2-[2-(2-Amino-ethoxy)-ethoxy]-acetyl)2-(γ-Glu)-CO-(CH2)18-CO2H); Aib20; Aad21; C-terminal NH2
B7: Example 143 (peptide)
peptide: B6 peptide
modifications: Aib2; αMeF6; αMeL13; K17((2-[2-(2-Amino-ethoxy)-ethoxy]-acetyl)2-(γ-Glu)-CO-(CH2)18-CO2H); Aib20; Aib21; C-terminal NH2
B8: Example 144 (peptide)
peptide: B6 peptide with X20H
modifications: Aib2; αMeF6; αMeL13; K17((2-[2-(2-Amino-ethoxy)-ethoxy]-acetyl)2-(γ-Glu)-CO-(CH2)18-CO2H); Aib21; C-terminal NH2
B9: Example 147 (peptide)
peptide: B6 peptide with K16E, X21E, E24X
modifications: Aib2; αMeF(2F)6; αMeL13; K17((2-[2-(2-Amino-ethoxy)-ethoxy]-acetyl)2-(γ-Glu)-CO-(CH2)18-CO2H); Aib20; Aad24; C-terminal NH2
B10: Example 152 (peptide)
peptide: B6 peptide with K16E, X21E, E24X
modifications: Aib2; αMeF(2F)6; αMeL13; K17((2-[2-(2-Amino-ethoxy)-ethoxy]-acetyl)2-(γ-Glu)-CO-(CH2)18-CO2H); Aib20; Aib24; C-terminal NH2

Residue numbers refer to the chain shown, from its start. Numbered stars: 1 amine (or outer) side, 2 acyl side, 3 side chain; on linkers, the order of the positions; unused ones are H or OH. Square brackets hold non-standard residues; d marks the D form. Side chains are listed from the residue outwards. Ends that are not written are not given here. * marks the point of attachment. C20 diacid = O=C(O)CCCCCCCCCCCCCCCCCCC(=O)*; γGlu = O=C(O)[C@H](CCC(=O)[*:2])N[*:1]; Desaminotyrosyl = O=C(CCc1ccc(O)cc1)*; αMeF = C[C@](N)(Cc1ccccc1)C(=O)O; αMeL = CC(C)C[C@](C)(N)C(=O)O; AEEA = NCCOCCOCC(=O)O; Aib = CC(C)(N)C(=O)O

T2 sequence (P47871 26-477): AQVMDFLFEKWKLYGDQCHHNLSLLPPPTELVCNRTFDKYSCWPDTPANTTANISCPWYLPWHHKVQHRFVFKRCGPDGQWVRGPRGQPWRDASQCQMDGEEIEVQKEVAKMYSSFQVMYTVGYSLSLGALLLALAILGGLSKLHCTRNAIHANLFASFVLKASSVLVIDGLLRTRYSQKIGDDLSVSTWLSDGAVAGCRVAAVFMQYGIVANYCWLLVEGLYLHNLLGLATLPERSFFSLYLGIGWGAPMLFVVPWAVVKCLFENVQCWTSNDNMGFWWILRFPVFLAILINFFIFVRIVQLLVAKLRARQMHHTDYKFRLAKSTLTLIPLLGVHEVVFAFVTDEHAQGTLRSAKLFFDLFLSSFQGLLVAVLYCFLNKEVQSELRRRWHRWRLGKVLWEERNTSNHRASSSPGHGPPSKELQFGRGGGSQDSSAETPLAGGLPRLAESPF

One assay has as its target T2, human glucagon receptor (human, UniProt P47871 26-477).
T2 construct: whole, on cells; Used as crude membranes of stably transfected HEK293 cells; also called hGcgR; hGLcgR
Kind of assay: SPA, [125I]-Gcg displacement, hGcgR membranes.
Consider B1, for which the Ki was found to be 51.9 nM.
On to B2, for which affinity was put at a Ki of 216 nM.
Still for that read-out and setting: the value for B3 was 43.3 nM; that for B4 was 80.1 nM.
Regarding B5, the affinity corresponds to a Ki of 41.5 nM.
With B6, the affinity, expressed as Ki, was 98.1 nM.
With B7, the Ki was determined as 65.5 nM.
On to B8, for which the affinity, expressed as Ki, was 77 nM.
B9 returned an inhibition constant Ki of 64.9 nM.
The molecule B10 returned a Ki of 93.4 nM.

The target in another assay is T1, human GIP receptor. The assay can be described thus: SPA, [125I]-GIP displacement, hGIPR membranes.
On to B1, for which the Ki was determined as 0.177 nM.
B2 registered a Ki of 0.157 nM.
B3 registered an inhibitory constant (Ki) of 0.19 nM.
B4 displayed a Ki of 0.0469 nM.
The same measure, in the same setting: in the case of B5 it was 0.0424 nM; in that of B6, 0.0373 nM.
B7 gave a Ki of 0.0304 nM.
The molecule B8 yielded a Ki of 0.0341 nM.
In turn, B9 had a Ki of 0.0981 nM.
B10 returned an inhibitory constant (Ki) of 0.117 nM.

The next assay concerns the target T3, human GLP-1 receptor (human, UniProt P43220 24-463).
T3 construct: whole, on cells; Used as crude membranes of stably transfected HEK293 cells; also called hGLP1R; hGLP-1R
The assay can be described thus: SPA, [125I]-GLP-1 displacement, hGLP-1R membranes.
B1 displayed a Ki of 3.16 nM.
In turn, B2 showed a Ki of 11.4 nM.
Consider B3, for which the Ki came to 3.36 nM.
Still for that read-out and setting: the value for B4 was 1.31 nM; that for B5 was 4.87 nM; that for B6 was 1.24 nM.
B7 gave an inhibition constant (Ki) of 1.15 nM.
In the case of B8, affinity was put at a Ki of 1.78 nM.
For B9, the Ki was 4.47 nM.
B10 had an inhibition constant (Ki) of 48 nM.
